Experimental findings from article PMC5787804 (2017) are described below.

Where no end group is shown, it is not given here. Side-chain parts run from the residue outwards. silicon chip = not defined here

In test [1] the target is Orai1-L2 (aa 136–186, mutation C143G) (human, UniProt Q96D31 136-186, C143G, conjugated to amino-functionalized AFM cantilever tips via a flexible NHS-PEG18-acetal cross-linker). Kind of test: AFM single-molecule force spectroscopy.
Test [2] has as its target Orai3-L2 (aa 111–161, mutation C118G) (human, UniProt Q9BRQ5 111-161, C118G, conjugated to amino-functionalized AFM cantilever tips via a flexible NHS-PEG18-acetal cross-linker). Kind of test: AFM single-molecule force spectroscopy.

Orai1-L2 (aa 136–186, mutation C143G), sequence (Q96D31 136-186 C143G): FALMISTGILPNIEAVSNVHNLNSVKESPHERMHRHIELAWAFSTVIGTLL

Consider LYLSRAKLKASSRC([NHS‑PEG27‑maleimide-silicon chip]) (reading uncertain) [Orai1-NT 79–91], for which the koff in test [1] came out at 0.13 s⁻¹; in test [2], 0.09 s⁻¹.

B1: Orai1-NT 70–91 (peptide)
peptide: SMQALSWRKLYLSRAKLKASSRC
modifications: added C-terminal cysteine for site-specific coupling; immobilized on silicon chips via NHS-PEG27-maleimide linkers
On to B1, for which the results for the koff in test [1] and in test [2] were 1.9 s⁻¹ and 0.23 s⁻¹, respectively.

The koff is a measure of how fast the partners let go of each other. Low readings indicate a long-lived complex, high ones a short-lived complex.
